Tests used:
[1] = target: Sec61 complex of T10-PK-RM (trypsin 10 μg/ml) (canine (endogenous in canine pancreas microsomes)) (UniProt P38377); assay: SEC
[2] = target: Sec61 complex of C5-PK-RM (chymotrypsin 5 μg/ml) (canine (endogenous in canine pancreas microsomes)) (UniProt P38377); assay: SEC
[3] = target: Sec61 complex of C30-PK-RM (chymotrypsin 30 μg/ml) (canine (endogenous in canine pancreas microsomes)) (UniProt P38377); assay: SEC
[4] = target: Sec61 complex of T3-PK-RM (trypsin 3 μg/ml) (canine (endogenous in canine pancreas microsomes)) (UniProt P38377); assay: radioligand binding
[5] = target: Sec61 complex of C5-PK-RM (chymotrypsin 5 μg/ml) (canine (endogenous in canine pancreas microsomes)) (UniProt P38377); assay: radioligand binding
[6] = target: Sec61 complex of Th50-PK-RM (thermolysin 50 μg/ml, on ice) (canine (endogenous in canine pancreas microsomes)) (UniProt P38377); assay: radioligand binding
[7] = target: Sec61 complex of C30-PK-RM (chymotrypsin 30 μg/ml) (canine (endogenous in canine pancreas microsomes)) (UniProt P38377); assay: radioligand binding
[8] = target: Sec61 complex of C1-PK-RM (chymotrypsin 1 μg/ml) (canine (endogenous in canine pancreas microsomes)) (UniProt P38377); assay: radioligand binding

Work on “ribosome-nascent chain complex bearing pPL86 (from UniProt P01239 1-86)” yielded a fold less RNCs bound than undigested PK-RM [1] of 5 fold, a fold decrease in RNC binding against undigested PK-RM [2] of 2 fold and a fold less RNCs bound than undigested PK-RM [3] of 2.7 fold. For the same substance, the percent of the bound RNCs insensitive to high salt extraction [3] was 80%.

For “ribosome-nascent chain complex bearing ffLuc77”, the fold reduction of RNC binding relative to intact microsomes [3] was 3.5 fold.

With “canine ribosomes (nontranslating 80S ribosomes) (complex)” the percent of the high affinity ribosome binding sites of intact PK-RM [4] was 5%, the fold lower affinity than the sites of undigested PK-RM [5] was under 2 fold and the fold reduction of ribosome binding against undigested PK-RM [5] was 3 fold. For the same substance, the fold fewer ribosome binding sites than Th2-PK-RM [6] was 3 fold, the fold defect in ribosome binding against undigested PK-RM [7] was over 10 fold and the fold lower affinity than the sites of undigested PK-RM [7] was under 2 fold. It also gave a fold lower affinity than the sites of undigested PK-RM [8] of under 2 fold.
